Experimental data taken from paper PMC12051053.

Molecular target: H3K9ac nucleosome with 147 bp DNA

**Q.** With “G60A SIRT6 (from UniProt Q8N6T7 2-355) (enzyme)” as the substance, how does the Km for the nucleosome substrate in the Western blot-based deacylation assay read?
**A.** Its Km for the nucleosome substrate in the Western blot-based deacylation assay is 0.088 µM.
